Results published in US20260274985A1 (MYTHIC THERAPEUTICS, published 2026).

T1: TROP2 on TROP2-positive NCI-H1975 cells (human, UniProt P09758 27-323)
T1 sequence: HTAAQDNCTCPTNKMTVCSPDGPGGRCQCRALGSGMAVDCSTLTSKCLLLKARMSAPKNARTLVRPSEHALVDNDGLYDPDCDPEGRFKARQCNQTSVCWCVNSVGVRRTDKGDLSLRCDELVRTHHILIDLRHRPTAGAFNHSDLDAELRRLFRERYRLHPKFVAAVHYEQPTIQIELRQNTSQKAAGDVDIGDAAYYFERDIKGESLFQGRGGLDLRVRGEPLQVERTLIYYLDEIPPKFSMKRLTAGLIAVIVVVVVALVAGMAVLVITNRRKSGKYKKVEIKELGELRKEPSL


Target: T1, TROP2 on TROP2-positive NCI-H1975 cells
Assay: cell-based or functional assay

| Binder | FOW H1975 (10 nM) [fold over parent antibody] |
| --- | --- |
| MYT13429 (antibody, V domains shown) VH: QVQLQQSGSELKKPGASVKVSCKASGYTFTNYGMNWVKQAPGQGLKWMGWINTYTGEPTYTDDFKHRFAFSLDTSVSTAYLQISSLKADDTAVYFCARGGFGSSYWYFDVWGQGSLVTVSS VL: DIQLTQSPSSLSASVGDRVSITCKASQDVHIAVAWYQQKPGKAPKLLIYSHSYRYTGVPDRFSGSGSGTDFTLTISSLQPEDFAVYYCQQHYHTPLTFGAGTKVEIK | 1.83 |
| MYT13432 (antibody, V domains shown) VH: QVQLQQSGSELKKPGASVKVSCKASGYTFTNYGMNWVKQAPGQGLKWMGWINTYTGEPTHTDDFKGRFAFSLDTSVSTAYLQISSLKADDTAVYFCARGGFGSSYWYFDVWGQGSLVTVSS VL: DIQLTQSPSSLSASVGDRVSITCKASQDVSIAVAWYQQKPGKAPKLLIYSHSHRYTGVPDRFSGSGSGTDFTLTISSLQPEDFAVYYCQQHYHTPLTFGAGTKVEIK | 1.4 |
| MYT13417 (antibody, V domains shown) VH: QVQLQQSGSELKKPGASVKVSCKASGYTFTNYGMNWVKQAPGQGLKWMGWINTYTGEPTYTHDFKGRFAFSLDTSVSTAYLQISSLKADDTAVYFCARGGFGSSYWYFDVWGQGSLVTVSS VL: DIQLTQSPSSLSASVGDRVSITCKASQDVHIAVAWYQQKPGKAPKLLIYSHSYRYTGVPDRFSGSGSGTDFTLTISSLQPEDFAVYYCHQHYITPLTFGAGTKVEIK | 1.76 |
| MYT13435 (antibody, V domains shown) VH: QVQLQQSGSELKKPGASVKVSCKASGYTFTNYGMNWVKQAPGQGLKWMGWINTYTGEPTYTDDHKGRFAFSLDTSVSTAYLQISSLKADDTAVYFCARGGFGSSYWYFDVWGQGSLVTVSS VL: DIQLTQSPSSLSASVGDRVSITCKASQDVSIAVAWYQQKPGKAPKLLIYSHSHRYTGVPDRFSGSGSGTDFTLTISSLQPEDFAVYYCQQHYHTPLTFGAGTKVEIK | 1.33 |
| MYT13421 (antibody, V domains shown) VH: QVQLQQSGSELKKPGASVKVSCKASGYTFTNYGMNWVKQAPGQGLKWMGWINTYTGEPTYTDDFKHRFAFSLDTSVSTAYLQISSLKADDTAVYFCARGGFGSSYWYFDVWGQGSLVTVSS VL: DIQLTQSPSSLSASVGDRVSITCKASQDVHIAVAWYQQKPGKAPKLLIYSHSYRYTGVPDRFSGSGSGTDFTLTISSLQPEDFAVYYCHQHYITPLTFGAGTKVEIK | 1.42 |
| MYT13366 (antibody, V domains shown) VH: QVQLQQSGSELKKPGASVKVSCKASGYTFTNHGMNWVKQAPGQGLKWMGWINTYTGEPTYTDDFKGRFAFSLDTSVSTAYLQISSLKADDTAVYFCARGGFGSSYWYFDVWGQGSLVTVSS VL: DIQLTQSPSSLSASVGDRVSITCKASQDVHIAHAWYQQKPGKAPKLLIYSASYRYTGVPDRFSGSGSGTDFTLTISSLQPEDFAVYYCQQHYITPLTFGAGTKVEIK | 1.35 |
| MYT13437 (antibody, V domains shown) VH: QVQLQQSGSELKKPGASVKVSCKASGYTFTNYGMNWVKQAPGQGLKWMGWINTYTGEPTYTDDFKHRFAFSLDTSVSTAYLQISSLKADDTAVYFCARGGFGSSYWYFDVWGQGSLVTVSS VL: DIQLTQSPSSLSASVGDRVSITCKASQDVSIAVAWYQQKPGKAPKLLIYSHSHRYTGVPDRFSGSGSGTDFTLTISSLQPEDFAVYYCQQHYHTPLTFGAGTKVEIK | 1.49 |
| MYT13379 (antibody, V domains shown) VH: QVQLQQSGSELKKPGASVKVSCKASGYTFTNYGMNWVKQAPGQGLKWMGWINTYTGEPTYTDDHKGRFAFSLDTSVSTAYLQISSLKADDTAVYFCARGGFGSSYWYFDVWGQGSLVTVSS VL: DIQLTQSPSSLSASVGDRVSITCKASQDVHIAVAWYQQKPGKAPKLLIYSHSYRYTGVPDRFSGSGSGTDFTLTISSLQPEDFAVYYCQQHYITPLTFGAGTKVEIK | 1.33 |
| MYT13420 (antibody, V domains shown) VH: QVQLQQSGSELKKPGASVKVSCKASGYTFTNYGMNWVKQAPGQGLKWMGWINTYTGEPTYTDDFHGRFAFSLDTSVSTAYLQISSLKADDTAVYFCARGGFGSSYWYFDVWGQGSLVTVSS VL: DIQLTQSPSSLSASVGDRVSITCKASQDVHIAVAWYQQKPGKAPKLLIYSHSYRYTGVPDRFSGSGSGTDFTLTISSLQPEDFAVYYCHQHYITPLTFGAGTKVEIK | 1.34 |
| MYT13368 (antibody, V domains shown) VH: QVQLQQSGSELKKPGASVKVSCKASGYTFTNYGMNWVKQAPGQGLKWMGWINTYTGEPTHTDDFKGRFAFSLDTSVSTAYLQISSLKADDTAVYFCARGGFGSSYWYFDVWGQGSLVTVSS VL: DIQLTQSPSSLSASVGDRVSITCKASQDVHIAHAWYQQKPGKAPKLLIYSASYRYTGVPDRFSGSGSGTDFTLTISSLQPEDFAVYYCQQHYITPLTFGAGTKVEIK | 1.43 |
| MYT13424 (antibody, V domains shown) VH: QVQLQQSGSELKKPGASVKVSCKASGYTFTNYGMNWVKQAPGQGLKWMGWINTYTGEPTHTDDFKGRFAFSLDTSVSTAYLQISSLKADDTAVYFCARGGFGSSYWYFDVWGQGSLVTVSS VL: DIQLTQSPSSLSASVGDRVSITCKASQDVHIAVAWYQQKPGKAPKLLIYSHSYRYTGVPDRFSGSGSGTDFTLTISSLQPEDFAVYYCQQHYHTPLTFGAGTKVEIK | 1.71 |

The next lines start with the values.

| FOW H1975 (10 nM) [fold over parent antibody] | Binder |
| --- | --- |
| 1.37 | MYT13374 (antibody, V domains shown) VH: QVQLQQSGSELKKPGASVKVSCKASGYTFTNHGMNWVKQAPGQGLKWMGWINTYTGEPTYTDDFKGRFAFSLDTSVSTAYLQISSLKADDTAVYFCARGGFGSSYWYFDVWGQGSLVTVSS VL: DIQLTQSPSSLSASVGDRVSITCKASQDVHIAVAWYQQKPGKAPKLLIYSHSYRYTGVPDRFSGSGSGTDFTLTISSLQPEDFAVYYCQQHYITPLTFGAGTKVEIK |
| 1.51 | MYT13371 (antibody, V domains shown) VH: QVQLQQSGSELKKPGASVKVSCKASGYTFTNYGMNWVKQAPGQGLKWMGWINTYTGEPTYTDDHKGRFAFSLDTSVSTAYLQISSLKADDTAVYFCARGGFGSSYWYFDVWGQGSLVTVSS VL: DIQLTQSPSSLSASVGDRVSITCKASQDVHIAHAWYQQKPGKAPKLLIYSASYRYTGVPDRFSGSGSGTDFTLTISSLQPEDFAVYYCQQHYITPLTFGAGTKVEIK |
| 1.82 | MYT13433 (antibody, V domains shown) VH: QVQLQQSGSELKKPGASVKVSCKASGYTFTNYGMNWVKQAPGQGLKWMGWINTYTGEPTYTHDFKGRFAFSLDTSVSTAYLQISSLKADDTAVYFCARGGFGSSYWYFDVWGQGSLVTVSS VL: DIQLTQSPSSLSASVGDRVSITCKASQDVSIAVAWYQQKPGKAPKLLIYSHSHRYTGVPDRFSGSGSGTDFTLTISSLQPEDFAVYYCQQHYHTPLTFGAGTKVEIK |
| 1.42 | MYT13376 (antibody, V domains shown) VH: QVQLQQSGSELKKPGASVKVSCKASGYTFTNYGMNWVKQAPGQGLKWMGWINTYTGEPTHTDDFKGRFAFSLDTSVSTAYLQISSLKADDTAVYFCARGGFGSSYWYFDVWGQGSLVTVSS VL: DIQLTQSPSSLSASVGDRVSITCKASQDVHIAVAWYQQKPGKAPKLLIYSHSYRYTGVPDRFSGSGSGTDFTLTISSLQPEDFAVYYCQQHYITPLTFGAGTKVEIK |
| 1.6 | MYT13373 (antibody, V domains shown) VH: QVQLQQSGSELKKPGASVKVSCKASGYTFTNYGMNWVKQAPGQGLKWMGWINTYTGEPTYTDDFKHRFAFSLDTSVSTAYLQISSLKADDTAVYFCARGGFGSSYWYFDVWGQGSLVTVSS VL: DIQLTQSPSSLSASVGDRVSITCKASQDVHIAHAWYQQKPGKAPKLLIYSASYRYTGVPDRFSGSGSGTDFTLTISSLQPEDFAVYYCQQHYITPLTFGAGTKVEIK |
| 1.71 | MYT13426 (antibody, V domains shown) VH: QVQLQQSGSELKKPGASVKVSCKASGYTFTNYGMNWVKQAPGQGLKWMGWINTYTGEPTYTDHFKGRFAFSLDTSVSTAYLQISSLKADDTAVYFCARGGFGSSYWYFDVWGQGSLVTVSS VL: DIQLTQSPSSLSASVGDRVSITCKASQDVHIAVAWYQQKPGKAPKLLIYSHSYRYTGVPDRFSGSGSGTDFTLTISSLQPEDFAVYYCQQHYHTPLTFGAGTKVEIK |
| 1.4 | MYT13378 (antibody, V domains shown) VH: QVQLQQSGSELKKPGASVKVSCKASGYTFTNYGMNWVKQAPGQGLKWMGWINTYTGEPTYTDHFKGRFAFSLDTSVSTAYLQISSLKADDTAVYFCARGGFGSSYWYFDVWGQGSLVTVSS VL: DIQLTQSPSSLSASVGDRVSITCKASQDVHIAVAWYQQKPGKAPKLLIYSHSYRYTGVPDRFSGSGSGTDFTLTISSLQPEDFAVYYCQQHYITPLTFGAGTKVEIK |
| 1.46 | MYT13434 (antibody, V domains shown) VH: QVQLQQSGSELKKPGASVKVSCKASGYTFTNYGMNWVKQAPGQGLKWMGWINTYTGEPTYTDHFKGRFAFSLDTSVSTAYLQISSLKADDTAVYFCARGGFGSSYWYFDVWGQGSLVTVSS VL: DIQLTQSPSSLSASVGDRVSITCKASQDVSIAVAWYQQKPGKAPKLLIYSHSHRYTGVPDRFSGSGSGTDFTLTISSLQPEDFAVYYCQQHYHTPLTFGAGTKVEIK |
| 1.71 | MYT13386 (antibody, V domains shown) VH: QVQLQQSGSELKKPGASVKVSCKASGYTFTNYGMNWVKQAPGQGLKWMGWINTYTGEPTYTDHFKGRFAFSLDTSVSTAYLQISSLKADDTAVYFCARGGFGSSYWYFDVWGQGSLVTVSS VL: DIQLTQSPSSLSASVGDRVSITCKASQDVHIAVAWYQQKPGKAPKLLIYSAHYRYTGVPDRFSGSGSGTDFTLTISSLQPEDFAVYYCQQHYITPLTFGAGTKVEIK |
| 1.51 | MYT13418 (antibody, V domains shown) VH: QVQLQQSGSELKKPGASVKVSCKASGYTFTNYGMNWVKQAPGQGLKWMGWINTYTGEPTYTDHFKGRFAFSLDTSVSTAYLQISSLKADDTAVYFCARGGFGSSYWYFDVWGQGSLVTVSS VL: DIQLTQSPSSLSASVGDRVSITCKASQDVHIAVAWYQQKPGKAPKLLIYSHSYRYTGVPDRFSGSGSGTDFTLTISSLQPEDFAVYYCHQHYITPLTFGAGTKVEIK |
